Source: patent publication US20200157212A1 (Pfizer, published 2020)

T1: Cynomolgus monkey ROBO2 overexpressed on HEK293 cells (cynomolgus monkey, UniProt Q9HCK4 22-1378 (human entry))
T1 chain: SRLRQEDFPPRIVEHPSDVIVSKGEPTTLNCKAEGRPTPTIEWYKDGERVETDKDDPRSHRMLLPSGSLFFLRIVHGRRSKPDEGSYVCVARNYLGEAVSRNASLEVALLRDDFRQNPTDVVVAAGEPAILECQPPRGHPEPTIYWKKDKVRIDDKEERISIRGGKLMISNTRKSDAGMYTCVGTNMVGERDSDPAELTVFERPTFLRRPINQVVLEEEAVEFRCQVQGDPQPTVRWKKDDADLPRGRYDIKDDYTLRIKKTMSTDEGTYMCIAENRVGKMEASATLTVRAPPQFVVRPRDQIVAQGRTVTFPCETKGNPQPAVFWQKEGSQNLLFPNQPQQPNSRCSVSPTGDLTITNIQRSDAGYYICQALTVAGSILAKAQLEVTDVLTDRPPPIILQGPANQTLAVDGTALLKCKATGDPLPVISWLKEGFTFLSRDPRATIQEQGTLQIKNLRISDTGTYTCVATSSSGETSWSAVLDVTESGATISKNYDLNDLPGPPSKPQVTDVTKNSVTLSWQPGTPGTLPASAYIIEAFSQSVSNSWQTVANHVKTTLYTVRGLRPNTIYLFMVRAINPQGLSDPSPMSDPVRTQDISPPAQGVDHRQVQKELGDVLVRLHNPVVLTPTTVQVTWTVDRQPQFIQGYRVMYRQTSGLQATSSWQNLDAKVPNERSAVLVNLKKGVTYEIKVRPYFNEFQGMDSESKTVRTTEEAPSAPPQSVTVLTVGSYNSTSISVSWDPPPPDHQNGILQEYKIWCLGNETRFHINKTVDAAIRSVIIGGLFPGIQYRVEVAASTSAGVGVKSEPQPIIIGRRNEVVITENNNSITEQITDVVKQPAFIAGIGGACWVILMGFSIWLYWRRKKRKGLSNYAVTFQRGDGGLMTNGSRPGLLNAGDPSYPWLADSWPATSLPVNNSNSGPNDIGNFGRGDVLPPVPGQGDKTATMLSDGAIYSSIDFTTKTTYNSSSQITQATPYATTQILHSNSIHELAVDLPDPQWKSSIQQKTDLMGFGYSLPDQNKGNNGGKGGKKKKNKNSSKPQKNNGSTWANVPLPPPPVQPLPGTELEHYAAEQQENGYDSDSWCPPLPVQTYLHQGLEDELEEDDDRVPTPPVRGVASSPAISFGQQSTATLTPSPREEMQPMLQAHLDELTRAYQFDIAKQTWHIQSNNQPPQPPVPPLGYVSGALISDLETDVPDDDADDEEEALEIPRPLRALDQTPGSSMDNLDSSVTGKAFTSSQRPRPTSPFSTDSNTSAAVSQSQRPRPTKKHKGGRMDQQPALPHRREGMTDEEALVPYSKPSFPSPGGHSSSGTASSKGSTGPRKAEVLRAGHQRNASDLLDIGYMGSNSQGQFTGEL


Biological target: T1, Cynomolgus monkey ROBO2 overexpressed …
Assay: flow cytometry, HEK293 cells, average of n = 3
Procedure: Binding of the antibodies was detected using a secondary fluorochrome conjugated anti-human IgG F(ab′)₂ antibody and samples were analyzed on a Fortessa cytometer (BD Biosciences). The fold ROBO2 selectivity was calculated as the geometric mean fluorescence intensity (Geo MFI) with ROBO2 cells/Geo MFI with ROBO1 cells. A fold change higher than 3 was considered to be ROBO2 specific (Table 2, Fold Selectivity). Some affinity matured clones had increased ROBO1 reactivity, for example Abcs 55, CTI-R2-10 and CTIR2-13.
Based upon several criteria, Abcs25 and Abcs35 were selected for further characterization. Using flow cytometry, improvement in the binding EC₅₀ to human ROBO2 relative to the parental 93H2 was evaluated. Starting at 6.7 nM, 11-point, 3-fold dilution series were made for each antibody and used to stain HEK293 overexpressing human ROBO2 as described above for the ROBO2 fold selectivity (Example 2). […] In addition to measuring improved binding to human ROBO2, it was important to ensure that high affinity binding to both cynomolgus monkey ROBO2 and rat ROBO2 was maintained. Using HEK293 cells overexpressing either cynomolgus monkey ROBO2 or rat ROBO2, the relative dose-dependent binding of 93H2, Abcs25 and Abcs35 was evaluated as described above. High affinity binding to both cynomolgus monkey and rat ROBO2 was maintained in Abcs25 and Abcs35 (Table 4). […] Briefly, Abcs35 was immobilized to 300 resonance units (RU) on a CM5 chip. Association of ROBO2 Ig1-Ig2-His (ROBO2) was measured over 5 minutes and dissociation was followed for a period of 10 minutes.

Row | Binder | EC50
1 | 93H2 (antibody, human IgG1, kappa, V domains shown, also called parental 93H2; 93H2 mAb) VH: EVQLVQSGAEVKKPGASVKVSCKASGYTFTGYYMHWVRQAPGQGLEWMGWINPNSGATNFPQKFQGRVTMTRDTSITTAYMDLSRLRSDDTAVYYCARESGDDAFDIWGQGTMVTVSS VL: not shown | 0.316 nM
2 | Abcs25 (antibody, human IgG1, kappa, V domains shown, chain-shuffled IgG) VH: EVQLVQSGAEVKKPGASVKVSCKASGYTFTGYYMHWVRQAPGQGLEWMGWINPKDGDTEFPQKFQGRVTMTRDTSITTAYMDLSRLRSDDTAVYYCARESGDDAFDIWGQGTMVTVSS VL: DIVMTQSPSSLSASVGDRVTITCRASQSISSYLNWYQQKPGKAPKLLIYAASSLQSGVPSRFSGSGSGTDFTLTISSLQPEDFATYYCQQSVGLSFGGGTKVEIKR | 0.128 nM
3 | Abcs35 (antibody, human IgG1, kappa, fully human IgG1; VH of Ab96 with VL of Ab123) heavy: EVQLVQSGAEVKKPGASVKVSCKASGYTFTGYYMHWVRQAPGQGLEWMGWINPKNGDTEFPQKFQGRVTMTRDTSITTAYMDLSRLRSDDTAVYYCARESGDDAFDIWGQGTMVTVSSASTKGPSVFPLAPSSKSTSGGTAALGCLVKDYFPEPVTVSWNSGALTSGVHTFPAVLQSSGLYSLSSVVTVPSSSLGTQTYICNVNHKPSNTKVDKKVEPKSCDKTHTCPPCPAPEAAGAPSVFLFPPKPKDTLMISRTPEVTCVVVDVSHEDPEVKFNWYVDGVEVHNAKTKPREEQYNSTYRVVSVLTVLHQDWLNGKEYKCKVSNKALPAPIEKTISKAKGQPREPQVYTLPPSREEMTKNQVSLTCLVKGFYPSDIAVEWESNGQPENNYKTTPPVLDSDGSFFLYSKLTVDKSRWQQGNVFSCSVMHEALHNHYTQKSLSLSPGK light: DIVMTQSPSSLSASVGDRVTITCRASQSISSYLNWYQQKPGKAPKLLIYAASSLQSGVPSRFSGSGSGTDFTLTISSLQPEDFATYYCQQSVGLFFGGGTKVEIKRTVAAPSVFIFPPSDEQLKSGTASVVCLLNNFYPREAKVQWKVDNALQSGNSQESVTEQDSKDSTYSLSSTLTLSKADYEKHKVYACEVTHQGLSSPVTKSFNRGEC | 0.145 nM
